Measured values from the nanobody polyreactivity screen of Harvey et al. (2022).

test: yeast display, Sf9 membrane polyspecificity reagent, FACS + sequencing; frameworks hold sequencing errors
Outline: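 A nanobody's polyreactivity label depends on the gate it was sorted from. Yeast display cells were stained with 10% biotinylated, detergent-solubilized Sf9 membrane reagent for 1 hour at 4 °C, enriched on streptavidin microbeads and sorted by FACS. The low and high (top ~1%) gates were set on anti-HA fluorescence for expression and streptavidin fluorescence for reagent binding.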

| Sequence | polyreactivity (PSR sort gate) |
| --- | --- |
| QVQLVESGGGLVQAGGSLRLSCAASGSIQTLYAMGWYRQAPGKERELVAAITSGDRTNYADSVKGRFTISRDNAKNTVYLQMNSLKPEDTAVYYCATKRWWGRYDYWGQGTQVTVSS | high polyreactivity |
| QVQLVESGGGLVQAGVSLRLSCAASGRTFYGNAMGWYRQAPGKERELVAAISRSGGRTYYADSVKGRFTISRDNAKNTVYLQMNSLKPEDTAVYYCAKDYYYPSHTYGYWGQGTQVTVSS | high polyreactivity |
| QVQLVESGGGLVQAGGSLRLSCAASGSISGYYVKGWYRQAQGKERELVAAITWRGGSTYYADSVKGRFTISRDNAKNTVYLQMNSLKPEDTAVYYCNKVPGRRSTFEYWGQGTQVTVSS | high polyreactivity |
| QVQLVESGGGLVQAGRSLRLSCAASGSIFSTNAMGWYTQAQGKEREFVAAIDITNYEDSVKGRFTISRDNSKNTVDFQMNSVIPEDTAVYSCIADTYSVVREGDYWGQGTQVTVSS | low polyreactivity |
| QVQLVESGGGLVQAGGSLRLSCAASGRIFSKYAMGWYRQAPGKARELVAAISTSTGSTYYADSVKGRFTISRDNAKNTVYLQMNSLKPEDTAVYYCAAVGSRWFSQTWRDYWGQGTQVTVSS | high polyreactivity |
| QVQLVESGGGLVQAGGSLRLSCAASGFTLWYNTMGWYRQAPGKERELVASITIGDSTSYADSVKGRFTISRDNAKNTVYLQMNSLKPEDTAVYYCNAEIALNSYDTYHRAADGYNYWGQGTQVTVSS | low polyreactivity |
| QVQLVESGGGLVQAGGSLRLSCAASGFIFNRNAMGWYRQAPGKERELVAAITWSASRTYYADSVKGRFTISRDNAKNTVYLQMNSLKPEDTAVSYCAARRYRGYDYWGQGTQVTVSS | high polyreactivity |
| QVHLVESGGGLVQAGRTLRLICAASGFIFWRNTMGWYRQAPGKERELVAVITRGGSTYYADSVKGRFTLSRDNAKNTGYLQMNSLKPEDTAVYYCAARNDYYKTFSGYDYWGQGTQVTVSS | low polyreactivity |
| QVQLVESGGGLVQAGGSLRLSCAASGSTFNAYVMGWYRQAPGKERELVAAITRGGSTNYADSVKGRFTISRDNAKNTVYLQMNSLKPEDTAVYDCAARGPWVIPYDYWGQGTQVTVSS | low polyreactivity |
| QVQLVESGGGLVQAGGSLRLSCAASGRIFTAYAMGWYRQAPGKERELVAAISSGDSTYYADSVKGRFTISRDNAKNTVYLQMNSLKPEDTAVYYCATGVYPDFEYDSWGQGTQVTVSS | low polyreactivity |
| QVQLVESGGGLVQAGGSLRLSCAASGRTFGYYAMGWYRQAPGKERELVAAISKSGGRTYYADSVKGRFTISRDNAKNTVYLQMNSLKPEDTAVYYCAADGGAIVPYYENYYWGQGTQVTVSS | high polyreactivity |
| QVQLVESGGGLVQAGGSLRLSCAASGYIFRAYAMGWYRQAPGKERELVAAITKRSGTTYYADSVKGRFTISRDNAKNTVYLQMNSLKPEDTAVYYCAAKTLYNSGTQDRAMGYWGQGTQVTVSS | high polyreactivity |
| QVQLVESGGALVQAGGSLRLSCAASGSTFLGYTMGWYRQAPGKERELVAAITSSGGRTYYADSVKGRFTISRDNAKYTVYLQMNSLIPEDTAVYYCATREYYPYSTRYSISYDYWGQGTQVTVSS | high polyreactivity |
| QVQLVESGGGLFQAGGSLRLSCAPSGNNFYGNDMGWYRQAPGKERDLVAAISRGGSTYYADSVKGRFTSSRDNAMNTVYLQMNSLKPEDSEVFYCAADYAYTTISWDDYWGQGTLVTVSS | low polyreactivity |
| QVQLVESGGGLVQAGGSLRLSCAASGSTFGYNAMGWYRQAPGKERELVAAISWSGGSTYYADSVKGRFTISRDNAKNTVYLQMNSLKPEDTAVYYCAALTHYGGYGYTYDYWGQGTQVTVSS | low polyreactivity |
| QVQLVESGGGLVQAGGSLRLSCAASGITFYSNAMGWYRQAPGKERELVARISSSGGSTYYADSVKGRFTISRDNAKNTVYLQMNSLKPEDTAVYYCAARRLWVRGYNYWGQGTQVTVSS | high polyreactivity |
| QVQLVESGGGLVQAGGSLRLSCAASGSTFQVNAMGWYRQAPGQDRELVAAITYRTGRTYYADSVKGRCTISRDNAKNTGYLQMNSLKPEDTAVYYCAATAHSYYGVGMGYWGQGTQVTVSS | high polyreactivity |
| QVQLVESGGGLVQAGGSLRLSCAATGRIFYRYSMGWYRQAPGKERELVAAIRYSGGTTYADSVKGRFTISRDNAKNTVYLQMNSLKPEDTAVFYCAARASLWGGFESWGQGTQVTVSS | high polyreactivity |
| QVQLVESGGGLLQAGGSQSLSCAASGIISFSNTMGWYIQAPGKERELVAAIDSGGDDTYYADSVKGRFTISRDNAKNSVYLQMNCLKAEDSAVDYCAKDAFFTEIAIRDQIISHHYYWGHGTQVTVSS | low polyreactivity |
| QVHLVESGGGLVQAGGSLRLSCAASGRIFNQYGMGWSRQAPGKERELVAAIRSGDSTNYADSVKGRFTISRDNAKNTVYLQMNSLKPEDTAVYYCARDRPGDYAGYDYWGQGTQVTVSS | low polyreactivity |
| QVQLVESGGGLVQAGGSLRLSCAASGSTFLRYAMGWYRQAPGKERELVAAISLSGGRTHYADSVKGRFTISRDNAKNTVYLQMNSLKPEDTAVYYCAARNTGPVQYYYWGQGTQVTVSS | low polyreactivity |

| Sequence | polyreactivity (PSR sort gate) |
| --- | --- |
| QGQLVESGGGLVQAGGRLRLSCAASGSIFASYAMGWYRQAPGKERELVAAITSDGNTYYADSVKGRFTISRDNAKNTVYLQMNSLKPEDTAVYYCAADRYSTYPYAKGTEFYYWGQGTQVTVSS | low polyreactivity |
| QVQLVESGGGLVQAGGSLRLSCAASGSTLDGNAMGWYRQAPGKERELVAAISVSGGSTYYADSVKGRFTISRDNAKNTVYLQMNSLKPEDPAVYYCSTEWRPRYYGTEPFDSWGQGTQVTVSS | high polyreactivity |
| QVQLVESGGGLVQAGGSLRLSCAASGRIFPYYAMGWYRQAPGKERELVAAISYSGGRTYYADSVKGRFTISRDNAKNTVYLQMNSLKPEDTAVYYCSAVVYLGYEYDYWGQGTQVTVSS | low polyreactivity |
| QVQLVESGGGLVQAGGSLRLSCAASGSTFDGNAMGWYRQAPGKERELVAAITYTTSSTYYADSVKGRFTISRDNAKNTVYLQMNSLKPEDTAVYYCAAGVNYRSPGVSKGRDYWGQGTQVTVSS | low polyreactivity |
| QVQLVESGGGLVQAGGSLRISCAASGSSYGTYAMGWYRKAPGKERELVAAINFSGTSTYYADSVKGRFTISRDKAKHTVYLQMNRLKPEETADYYCAARFYWKYGRYDNWGQGTQVTVSS | high polyreactivity |
| QVQLVDSCGGLVQAGGSLRLSFAASGRIYGPYAMGWYRQAPGKERELVAAISFSGSGTYYADSVKGRFTISRDNAKNTVYLQMNSLKPEDTAVYYCAADRWAHTHRLGYWGQGTQVTVSS | low polyreactivity |
| QVQLVESGGGLVQAGGSLRLSCAASGSTFKYNAMGWYRQAPGKERELVASISRSGGSTYYADSVKGRFTISRDNAKNTVYLQMNSLKPEDTAVYYCNVRRFVHYEYWGHGTQVTVSS | high polyreactivity |
| QVQLVESGGGLVQAGGSLRLSCAASGRIFDYYAMGWYRQAPGKERELVARISSSGGSTYYADSVKGRFTISRDNAKNTVYLQKNSLKPEDTAVSYCDARSPRYWLRLREYWGQGTQVTVSS | high polyreactivity |
| QVQLVDSGGGLVQAGGILRLSCAASGRIFYYNTMGWSRQAPGKERELVARITYSGGRTYYADSVKGRFTISRDNAKNTVYLQMNSLKPEDTAVYYCAARRRTFYATSSAINGYDYWGQGTQVTVSS | high polyreactivity |
| QVQLVESGGGLVQAGGSLRLSCAASGSTFGAYAMGWYRQAPGKERELVAVINSDGSTNYADSVKGRFTISRDNAKHTVYLQMNSLKPEDTAVYYCAKDRTSRGGVPRMNYWGQGTQVTVSS | low polyreactivity |
| QVQLVESGGGLVQAGGSLRLSCAASGFIFTKYTMGWYRQAPGKERELVAAITGRGTSTYADSVKGRFTISRDNAKNTVYLPMNSLIPEDTAVYYCAAVGWFAVFLFSDINGYYLGQGTQVTVSS | low polyreactivity |
| QVQHVESGGGLVQAGGSLRLSCPASGSIIYYNTMGWYRQAPGKERELVAGISWGGGRTYYADSVKGRFTISRDNAKNTVYLQMNSLKPEDTAVYYCNAVSKYDYGYWGQGTQVTVSS | high polyreactivity |
| QVQLVESGGGLVQAGGSLRLSCAASGLTFNGYTMGWYRQAPGKERELVAGITHSGSTTYTDSVKGRFTISRDNAKNTVYLQMNSLKPEDTAVYYCNARLGKVRVKDDYWGQGTQVTVSS | low polyreactivity |
| QVQLVESGGGLVQAGGSLRLSCAASGSIFGWYAMGWYRQAPGKERELVATISSGGSTSYADSVKGRFTISRDNAKNTVYLQMKSLKPEDTAVYYCAADIYPDWIYLLYGYWGQGTQVTVSS | low polyreactivity |
| QVQLVESGGGLVQAGGSLRLSCAASGFIFDGYAMGWYRQAPGKERELVAAIDSGGDRTYYADSVKGRFTISRDNAKYTVYLQMNSLKPEDTAVYYCAADSSDPTGYDYWGQGTQVTVSS | low polyreactivity |
| QVQLVESGGGLVKAGGSLRLSCAASGSIGSYAMGCYRQAPGKERELVAAISSRGGSTYYADSVKGRFTISRDNAKNTVYLQMNSLKPEDTAFYYCAADYRGRYYSKYYYWGQGTQVTVSS | high polyreactivity |
| QVQLVESGGGLVQAGGSLRLSCAASGRIFDLYTMGWYRQAPGKERELVAAIRWSDGSTYYADSVKGRFTISRDNAKNTVYLQMNSLKPEDTAVYYCATDTAILINFVLYDYWGQGTQVTVSL | low polyreactivity |
| QVQLVESGGGLVQAGGSLRLSCAASGSTFTLYARGWYRQAPGKERELVATITGSGGSTNYADSVKGRFTISRDNAKNTVYLQMNSLKPEDTAVYYCAADYAVYSFTEFNYWGQGTQVTVSS | high polyreactivity |
| QVQLVESGGGLVQAGGSLRLSCAASGTIFGEYAMGWYRQAPAKERELVADITTGGNTNYADSVKGRFTISRDNAKNTVYLQMNSLTPEATAVYYCAADFFSRDWGQGTQVTVSS | low polyreactivity |
| QVQLVESGGGLVQAGGSLRLSCAASGSIFTVYDMGWYRQAPGKERELVAAIDSSGGSTYYADSVKGRFTISRDNAKNTVYLQMNSLKPEDTAVYYCAADGDTTSPTYYIFWSGEFDYWGQGTQVTVSS | low polyreactivity |
